In the supplement of paper PMC6379048:

Legend:
Assay in all cases: EC50 of free RNA motif oligo competing protein binding to immobilised probe
RPS28 = RPS28 (UniProt P62857)
How it was run: (§1)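 Kd was calculated as EC50, taken from a four-parameter log-logistic fit, multiplied by a protein-dependent depletion factor. The assay used HEK293-FT lysate (2.5 mg protein/well) pre-incubated for 1 h at 4°C with free RNA oligos (0 nM to 30 μM), then incubated for 30 min at 4°C with the matching oligos bound through a 5′-amino-C6 linker to NHS-Sepharose beads. Bound proteins were measured by label-free LC-MS/MS and normalised to the control.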

SRSF7 = molecular target: T1, SRSF7 (UniProt Q16629)
T1 sequence: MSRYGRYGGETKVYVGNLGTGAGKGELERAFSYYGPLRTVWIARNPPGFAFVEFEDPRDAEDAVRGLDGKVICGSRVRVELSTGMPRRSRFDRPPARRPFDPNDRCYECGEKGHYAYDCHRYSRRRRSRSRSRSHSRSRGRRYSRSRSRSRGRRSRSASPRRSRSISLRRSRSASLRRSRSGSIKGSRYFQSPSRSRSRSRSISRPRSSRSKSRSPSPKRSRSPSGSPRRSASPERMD
How it was run: as §1

YTHDC2 = molecular target: T2, YTHDC2 (UniProt Q9H6S0)
T2 sequence: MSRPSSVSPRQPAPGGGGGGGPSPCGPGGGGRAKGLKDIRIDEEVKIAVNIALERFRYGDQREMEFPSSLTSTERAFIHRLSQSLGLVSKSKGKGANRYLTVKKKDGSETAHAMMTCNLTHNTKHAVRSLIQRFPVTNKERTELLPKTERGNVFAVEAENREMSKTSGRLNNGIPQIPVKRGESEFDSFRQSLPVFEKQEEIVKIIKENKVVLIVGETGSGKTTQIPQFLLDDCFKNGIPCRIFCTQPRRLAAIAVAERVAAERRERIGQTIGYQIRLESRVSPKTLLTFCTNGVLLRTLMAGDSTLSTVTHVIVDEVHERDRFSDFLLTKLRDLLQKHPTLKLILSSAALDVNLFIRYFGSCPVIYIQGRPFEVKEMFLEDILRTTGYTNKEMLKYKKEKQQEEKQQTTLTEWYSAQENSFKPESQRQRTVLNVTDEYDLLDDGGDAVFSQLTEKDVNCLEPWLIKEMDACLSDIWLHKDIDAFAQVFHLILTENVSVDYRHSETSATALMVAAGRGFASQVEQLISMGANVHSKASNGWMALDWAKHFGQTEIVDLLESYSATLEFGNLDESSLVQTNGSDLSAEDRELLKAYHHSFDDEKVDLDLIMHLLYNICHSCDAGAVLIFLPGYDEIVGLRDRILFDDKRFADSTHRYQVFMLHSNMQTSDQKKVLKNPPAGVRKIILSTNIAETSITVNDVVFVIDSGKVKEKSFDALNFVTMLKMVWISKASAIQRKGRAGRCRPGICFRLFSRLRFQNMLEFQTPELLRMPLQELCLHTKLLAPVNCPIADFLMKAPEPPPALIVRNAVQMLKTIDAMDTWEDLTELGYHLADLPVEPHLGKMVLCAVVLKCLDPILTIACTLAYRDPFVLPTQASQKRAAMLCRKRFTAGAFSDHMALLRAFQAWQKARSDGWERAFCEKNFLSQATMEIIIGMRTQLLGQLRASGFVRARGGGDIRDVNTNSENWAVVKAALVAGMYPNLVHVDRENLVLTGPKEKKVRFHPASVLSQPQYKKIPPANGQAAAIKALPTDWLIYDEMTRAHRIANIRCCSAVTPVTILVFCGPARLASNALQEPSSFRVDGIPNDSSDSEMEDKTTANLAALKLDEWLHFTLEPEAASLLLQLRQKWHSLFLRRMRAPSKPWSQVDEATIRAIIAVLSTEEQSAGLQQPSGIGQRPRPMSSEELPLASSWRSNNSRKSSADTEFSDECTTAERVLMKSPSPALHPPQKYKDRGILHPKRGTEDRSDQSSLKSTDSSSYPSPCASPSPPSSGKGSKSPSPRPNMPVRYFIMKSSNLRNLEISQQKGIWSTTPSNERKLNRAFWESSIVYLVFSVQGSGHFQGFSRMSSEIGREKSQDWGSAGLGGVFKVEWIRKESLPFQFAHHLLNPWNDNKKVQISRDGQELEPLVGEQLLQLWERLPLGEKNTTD
How it was run: as §1

MEX3D = molecular target: T3, MEX3D (UniProt Q86XN8)
T3 sequence: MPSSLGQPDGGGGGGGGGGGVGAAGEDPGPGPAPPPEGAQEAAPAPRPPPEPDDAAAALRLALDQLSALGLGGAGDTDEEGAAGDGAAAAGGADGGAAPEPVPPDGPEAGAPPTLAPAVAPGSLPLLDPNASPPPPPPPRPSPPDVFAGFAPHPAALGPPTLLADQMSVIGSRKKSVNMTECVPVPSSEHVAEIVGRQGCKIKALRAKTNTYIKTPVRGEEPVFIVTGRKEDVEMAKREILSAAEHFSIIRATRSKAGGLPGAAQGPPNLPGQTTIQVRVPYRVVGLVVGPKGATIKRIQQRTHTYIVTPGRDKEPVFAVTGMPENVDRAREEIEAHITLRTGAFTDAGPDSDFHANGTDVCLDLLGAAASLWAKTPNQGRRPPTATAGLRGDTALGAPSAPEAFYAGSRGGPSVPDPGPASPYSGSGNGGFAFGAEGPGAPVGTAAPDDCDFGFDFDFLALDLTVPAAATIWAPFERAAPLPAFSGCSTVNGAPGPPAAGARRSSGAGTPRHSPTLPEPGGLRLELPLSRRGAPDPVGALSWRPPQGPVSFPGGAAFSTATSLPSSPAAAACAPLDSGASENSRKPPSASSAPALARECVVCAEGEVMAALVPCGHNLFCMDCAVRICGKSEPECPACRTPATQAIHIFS
How it was run: as §1

TARDBP = TARDBP (UniProt Q13148)
Chain of TARDBP (Q13148 whole entry): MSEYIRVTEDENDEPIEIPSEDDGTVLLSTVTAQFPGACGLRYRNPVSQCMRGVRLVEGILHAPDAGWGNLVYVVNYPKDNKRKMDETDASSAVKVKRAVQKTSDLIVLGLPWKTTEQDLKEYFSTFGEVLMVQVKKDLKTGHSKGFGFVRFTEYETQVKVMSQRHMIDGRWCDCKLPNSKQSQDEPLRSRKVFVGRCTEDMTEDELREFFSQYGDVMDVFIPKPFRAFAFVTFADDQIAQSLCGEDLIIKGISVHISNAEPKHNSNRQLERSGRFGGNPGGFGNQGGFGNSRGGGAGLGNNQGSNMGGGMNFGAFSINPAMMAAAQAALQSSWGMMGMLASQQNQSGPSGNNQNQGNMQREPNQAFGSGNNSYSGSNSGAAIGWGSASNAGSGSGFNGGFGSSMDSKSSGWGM
How it was run: as §1

Sequence | EC50 (RPS28) [µM] | EC50 (SRSF7) [µM] | EC50 (YTHDC2) [µM] | EC50 (MEX3D) [µM] | EC50 (TARDBP) [µM]
CUGUCCU | 0.212 | 3.02 | 2.24 |  | 
UAUUUAU |  |  |  | 0.714 | 2.79
